From article PMC3662786, “miR172b Controls the Transition to Autotrophic Development Inhibited by ABA in Arabidopsis”

What was measured:
Settings in all cases: protein: recombinant; tags: MBP fusion; label: 3' biotin; blunt
MBP-SNZ [1] = molecular target: T1, MBP-SNZ (Arabidopsis thaliana, UniProt Q6PV67 1-325); experiment: EMSA; poly(dI-dC), 5 mM MgCl2; unlabeled RAV1-A probe reduced binding; LightShift EMSA binding buffer, 50 ng poly(dI-dC), 2.5% glycerol, 0.06% NP-40, 5 mM MgCl2, 19 mg BSA (so in the source), 28 ug protein, 5 pmol probe, 30 min room temperature; pH and salt not given
MBP-SNZ [2] = molecular target: T1, MBP-SNZ; experiment: EMSA; poly(dI-dC), 5 mM MgCl2; unlabeled probe (50x, 250x) inhibited binding; LightShift EMSA binding buffer, 50 ng poly(dI-dC), 2.5% glycerol, 0.06% NP-40, 5 mM MgCl2, 19 mg BSA (so in the source), 28 ug protein, 5 pmol probe, 30 min room temperature; pH and salt not given
MBP-SNZ [3] = molecular target: T1, MBP-SNZ; experiment: EMSA; poly(dI-dC), 5 mM MgCl2; LightShift EMSA binding buffer, 50 ng poly(dI-dC), 2.5% glycerol, 0.06% NP-40, 5 mM MgCl2, 19 mg BSA (so in the source), 28 ug protein, 5 pmol probe, 30 min room temperature; pH and salt not given

T1 sequence (Q6PV67 whole entry): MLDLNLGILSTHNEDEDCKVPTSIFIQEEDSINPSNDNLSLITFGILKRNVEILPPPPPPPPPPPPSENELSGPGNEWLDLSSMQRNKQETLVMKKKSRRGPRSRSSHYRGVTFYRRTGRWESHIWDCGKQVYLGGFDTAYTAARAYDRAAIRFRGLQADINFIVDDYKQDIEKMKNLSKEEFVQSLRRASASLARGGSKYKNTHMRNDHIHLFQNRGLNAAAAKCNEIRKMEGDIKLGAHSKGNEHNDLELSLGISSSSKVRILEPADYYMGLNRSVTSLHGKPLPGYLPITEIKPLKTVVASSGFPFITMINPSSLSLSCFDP

B1: wRAV1-A probe (dsDNA)
DNA 1: CACCTGCAACACAACACAACACAACACAACACAACACACCTG
DNA 2: CAGGTGTGTTGTGTTGTGTTGTGTTGTGTTGTGTTGCAGGTG
- binding result (MBP-SNZ [1]): binds

B2: ABI5 probe (dsDNA)
DNA 1: TTAACAACTGCATCATATACACAACAATAAC
DNA 2: GTTATTGTTGTGTATATGATGCAGTTGTTAA
- binding result (MBP-SNZ [2]): binds

B3: mRAV1-A probe (dsDNA)
DNA 1: CACCTGCGGTACGGTACGGTACGGTACGGTACGGTACACCTG
DNA 2: CAGGTGTACCGTACCGTACCGTACCGTACCGTACCGCAGGTG
- binding result (MBP-SNZ [3]): no binding
